Experimental findings from US20120189633A1 (KOLLTAN PHARMACEUTICALS, published 2012) are described below.

In assay [1] the target is T1, recombinant KIT D4/D5 polypeptide (D4/D5 region of human KIT, V308 to H515, with 5xHis tag) (human, UniProt P10721 26-519).
T1 construct: also called KIT D4/D5 antigen; KIT immunogen
The assay is described as follows: competition solid phase ELISA on KIT D4/D5 antigen; 37C titrated with competitor 37M at 10 nM. On the procedure:
(§1) Competitive binding assays were carried out with antibody 37M or 37C as described below and using solid phase ELISA as described in Example 2 (Section 6.2). In particular, serial dilutions of the reference antibody (either 37M or 37C) were combined with constant concentrations of a competing antibody (37M in the case of 37C, and 37C in the case of 37M) and incubated in wells of 96-well plates coated with a recombinant KIT polypeptide containing the D4/D5 region depicted in FIG. 2A. Reference antibody binding was then detected through the use of an HRP-conjugated, species-specific secondary antibody. Antibody 37M has a mouse constant region while antibody 37C has a human constant region. Therefore, when antibody 37M was used as a reference antibody and antibody 37C was used as a competing antibody, the reference antibody was detected using an anti-mouse IgG secondary antibody; and when antibody 37C was used as a reference antibody and antibody 37M was used as a competing antibody, the reference antibody was detected using an anti-human IgG secondary antibody. […]
(§2) Eight, 3-fold dilutions of the reference antibody samples were prepared beginning at 20 nM (2×), and combined 1:1 with a 20 nM solution of the competing antibody to yield final 1× values. […] The plates were processed similarly as described above for data collection on a plate reader. […]

For assay [2], the target named is full-length, wild-type human KIT receptor expressed on cells (human, UniProt P10721 26-976). The assay is described as follows: cell-based or functional assay.
Assay [3] deals with T1, recombinant KIT D4/D5 polypeptide …. The assay is described as follows: competition solid phase ELISA on KIT D4/D5 antigen; 37C titrated alone, without competitor. The method, then:
as §1, §2

The target is the same in assay [4]. The assay is described as follows: solid phase ELISA, antigen coated on the plate. The method, then: The binding activity of antibodies 37M and 37C obtained from mice immunized with a KIT immunogen containing the D4/D5 region of the human KIT extracellular region was characterized by solid phase ELISA. […] The binding affinity of antibody 37C for an antigen containing the D4/D5 region (see FIG. 2A) of human KIT was also tested by solid phase ELISA. The general protocol used for the solid phase ELISA experiments are described below.
Preparation of antibody sample with serial dilution: Dilution buffer (100 μL) was added to columns 1 and 7 of a 96 well plate, and 50 μL of dilution buffer were added to all the remaining wells. The test antibody (100 μL) was added to the first well containing 100 μL dilution buffer, mixed by pipetting, and 50 μL from the first well were removed and added into the second well and mixed. This dilution step was repeated across the row until the dilution step was repeated for a total of six dilutions. This dilution process was repeated for each sample.
ELISA: The plate with the absorbed antigen was removed from the −80° C. freezer and was allowed to thaw at room temperature. The borate buffer was removed by flicking the plate into the sink and blotting the plate dry. Blocking buffer (200 μL) was added to each well and was allowed to incubate at room temperature for one hour. The blocking buffer was removed, again by flicking the plate into the sink. […]

full-length, wild-type human KIT receptor expressed on cells, sequence (P10721 other isoform, or with tags, fused parts or gaps limits assumed): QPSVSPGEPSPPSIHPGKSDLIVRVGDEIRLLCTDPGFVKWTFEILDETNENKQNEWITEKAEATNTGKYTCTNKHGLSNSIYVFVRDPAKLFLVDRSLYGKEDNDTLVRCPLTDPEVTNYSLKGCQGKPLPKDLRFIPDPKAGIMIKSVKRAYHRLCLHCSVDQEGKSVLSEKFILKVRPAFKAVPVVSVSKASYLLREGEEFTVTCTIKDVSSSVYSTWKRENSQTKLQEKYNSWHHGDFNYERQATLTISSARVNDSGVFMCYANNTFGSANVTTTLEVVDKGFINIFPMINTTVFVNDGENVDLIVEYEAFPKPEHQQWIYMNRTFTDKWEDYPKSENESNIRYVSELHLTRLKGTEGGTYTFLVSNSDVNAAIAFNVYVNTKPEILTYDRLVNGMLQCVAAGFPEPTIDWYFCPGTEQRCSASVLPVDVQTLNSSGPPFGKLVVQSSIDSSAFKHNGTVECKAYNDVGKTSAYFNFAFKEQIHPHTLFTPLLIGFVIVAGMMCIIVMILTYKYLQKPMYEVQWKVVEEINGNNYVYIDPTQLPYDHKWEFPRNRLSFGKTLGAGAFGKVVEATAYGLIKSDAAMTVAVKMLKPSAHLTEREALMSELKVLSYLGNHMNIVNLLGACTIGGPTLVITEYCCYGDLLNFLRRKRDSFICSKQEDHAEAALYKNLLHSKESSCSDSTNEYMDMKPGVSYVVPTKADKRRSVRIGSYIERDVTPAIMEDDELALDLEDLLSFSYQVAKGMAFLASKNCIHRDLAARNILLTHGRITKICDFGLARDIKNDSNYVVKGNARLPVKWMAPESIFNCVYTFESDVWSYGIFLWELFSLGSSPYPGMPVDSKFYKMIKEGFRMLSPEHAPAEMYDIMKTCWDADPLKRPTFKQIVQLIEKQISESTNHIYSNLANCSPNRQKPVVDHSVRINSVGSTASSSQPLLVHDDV
T1 sequence (P10721 other isoform, or with tags, fused parts or gaps): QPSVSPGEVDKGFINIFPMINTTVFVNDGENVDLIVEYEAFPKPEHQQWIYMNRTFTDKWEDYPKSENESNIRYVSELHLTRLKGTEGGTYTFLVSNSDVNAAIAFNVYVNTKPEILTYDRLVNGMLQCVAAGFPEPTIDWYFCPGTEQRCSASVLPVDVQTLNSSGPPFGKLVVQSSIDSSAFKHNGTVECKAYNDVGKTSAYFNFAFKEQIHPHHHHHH

B1: antibody 37C (antibody, human IgG1, kappa, V domains shown)
VH: QVQLKQSGAELVRPGASVKLSCKASGYTFTDYYINWVKQRPGQGLEWIARIYPGSGNTYYNEKFKGKATLTAEKSSSTAYMQLSSLTSEDSAVYFCARGVYYFDYWGQGTTLTVSA
VL: DIVMTQSQKFMSTSVGDRVSVTCKASQNVRTNVAWYQQKPGQSPKALIYSASYRYSGVPDRFTGSGSGTDFTLTISNVQSEDLADYFCQQYNSYPRTFGGGTKLEIKR
notes: also called chimeric antibody 37C
B1: the EC50 in assay [1] was 1 nM; in assay [3], 0.048 nM; in assay [4] it was approximately 0.196 nM. Besides, the “50% inhibition concentration (IC50), cell-based phospho-KIT assay, unsorted CHO/KIT-WT cells (FIG. 8)” value in assay [2] was approximately 0.167 nM. Moreover, the “IC50, cell-based phospho-KIT assay, sorted (high KIT expression) CHO/KIT-WT cells (FIG. 11B)” value in assay [2] was approximately 0.334 nM.

B2: antibody 37M (antibody, V domains shown)
VH: QVQLKQSGAELVRPGASVKLSCKASGYTFTDYYINWVKQRPGQGLEWIARIYPGSGNTYYNEKFKGKATLTAEKSSSTAYMQLSSLTSEDSAVYFCARGVYYFDYWGQGTTLTVSS
VL: DIVMTQSQKFMSTSVGDRVSVTCKASQNVRTNVAWYQQKPGQSPKALIYSASYRYSGVPDRFTGSGSGTDFTLTISNVQSEDLADYFCQQYNSYPRTFGGGTKLEIKR
Regarding B2, the “IC50, cell-based phospho-KIT assay, sorted (high KIT expression) CHO/KIT-WT cells (FIG. 11B)” value in assay [2] is approximately 0.315 nM.
